This note sets out measurements from the nanobody polyreactivity screen of Harvey et al. (2022).

The nature of the data set: yeast display, Sf9 membrane polyspecificity reagent, FACS + sequencing; frameworks hold sequencing errors. The procedure, abridged: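 Polyreactivity labels are assigned by the sorting gate from which each nanobody was recovered. The gates were low and high (top ~1%), set on anti-HA fluorescence for expression and streptavidin fluorescence for reagent binding. Before sorting, galactose-induced (36–48 hours) yeast display cells were stained for 1 hour at 4 °C with 10% biotinylated, detergent-solubilized Sf9 membrane reagent.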
Consider “QVQLEESGGGLVQAGGSLRLSCAASGSIFAVYAMGWYIQAPGKERELVATISGRGGSTYYADSVKGRFTISRDNAKNTVYLQMNSLKPEDTAVYYCNARVLFRRERMDSWGQGTQVTVSS”, for which the “polyreactivity (PSR sort gate)” value is listed as “high polyreactivity”.

Regarding “QVQLEESGGGLVQAGGSLRLSCAASGSIFFYYAMGWYRQAPGKERELVAAIRSGTSTNYADSVKGRFTISRDNAKNTVYLQMNSLKPEDTAVYYCAARFPGGCYGMDYWGQGTQVTVSS”, the “polyreactivity (PSR sort gate)” value is “low polyreactivity”.

Regarding “QVQLEESGGGLVQAGGSLRLSCAASGSIFGLYAMGWYRQAPGKERELVAAISARGGSTYYADSVKGRFTISRDNAKNTVYLQMNSLKPEDTAVNYCATRQVSAYSYIYDYWGQGTQVTVSS”, the “polyreactivity (PSR sort gate)” value is recorded as “high polyreactivity”.

As for “QVQLEESGGGLVQAGGSLRLSCAASGSIFNYYAMGWYRQAPGKERELVAAITTSGGNTYYADSVKGRFTISRDNAKNTVYLQMNSLKPEDTAVYYCNVDARSSYDYWGQGTQVTVSS”, the “polyreactivity (PSR sort gate)” value is given as “low polyreactivity”.

Consider “QVQLEESGGGLVQAGGSLRLSCAASGSIFTYYAMGSYRQAPGKERELVARITRGGGTTYYADSVKGRFTISRDNAKNTVYLQMNSLKPEDTAVYYCAADFFAGTPRTFDYWGQGSQVTVSS”, for which the “polyreactivity (PSR sort gate)” value is “high polyreactivity”.

Take “QVQLEESGGGLVQAGGSLRLSCAASGSIFVTNAMGWYRQAPVKERELVAAISSGGNTNYADSVKGRFTISRDNAKNTVYLQMNSLKPEDTAVYYCAKDPDKVDYVDMDYWGQGTQVTVSS”: the “polyreactivity (PSR sort gate)” value is “low polyreactivity”.

Consider “QVQLEESGGGLVQAGGSLRLSCAASGSIFWIYALGWYRQAPGKERELVATITRRGGSTYYADSVKGRFTISRDNAKNTVYLQMNSLKPEDTAVYYCATEPGYTYLTSYKYDYWGQGTQVTVSS”, for which the “polyreactivity (PSR sort gate)” value is reported as “low polyreactivity”.

For “QVQLEESGGGLVQAGGSLRLSCAASGSIFYSNAMGWYRQAPGKEREFVAAISAGGGSTYYADSVKGRFTISRDNEKNTVYLQMNSLKPEDTSVYYCAAQPYNIIYPYDYWGQGTQVTVSS”, the “polyreactivity (PSR sort gate)” value is “low polyreactivity”.

For “QVQLEESGGGLVQAGGSLRLSCAASGSIFYSYAMGWYRQAPGKERELVAAINWSGGSTYYADSVKGRFTISRDNAKNTFYFQMNSLKPQDTAVYYCAADYGWGPIYDYWGQGTQVNVSS”, the “polyreactivity (PSR sort gate)” value is “low polyreactivity”.

As to “QVQLEESGGGLVQAGGSLRLSCAASGSIFYVYAIGSYRQAPRKERELVAAISQSGGNTYYADSVKGRFTISRDNAKNTVYLQMNSLKPEDTAVYYCNAVYYYYAGNYWGQGTQVTVSS”, the “polyreactivity (PSR sort gate)” value is recorded as “high polyreactivity”.

For “QVQLEESGGGLVQAGGSLRLSCAASGSIIAGYAMGWYRQAPGKERELVAAISQRGTSTYYADSVKGRFTISRDNAKNTVYLQMNSLKPEDTAVYYCAARVVSRMDYWGQGTQVTVSS”, the “polyreactivity (PSR sort gate)” value is “high polyreactivity”.

Take “QVQLEESGGGLVQAGGSLRLSCAASGSNFYLNDMGWYRQAPGKEREFVAAIDSRGTSTYYADSVKGRFTISRDNAKNTVYLQMNSLNPEDTAVYYCAADSYALEYDYWGQGTQVTVSS”: the “polyreactivity (PSR sort gate)” value is on record as “low polyreactivity”.

With “QVQLEESGGGLVQAGGSLRLSCAASGSTCGYYAMGWYRQAPGKERELVAVITRGGSTYYADSVKGRFTISRDNAMNTVYLQMNSLKPEDTAVYYCNARVQAVHYGYWGQGTQVPVSS”, the “polyreactivity (PSR sort gate)” value was “high polyreactivity”.

As to “QVQLEESGGGLVQAGGSLRLSCAASGSTFANYAMGWYRQAPRKERELVAGISWRGGRTYYADSVMGRFTISRDNGKNTVYLQINILKPEDTAVYYCAVVHQTFTGDYWGQGTQVTVSS”, the “polyreactivity (PSR sort gate)” value was “high polyreactivity”.

“QVQLEESGGGLVQAGGSLRLSCAASGSTFGYYAMGWYRQAPGKERELVAAISRSGGITYYADSVKGRFTISRDNAKNTVYLQMNSLKPDDTAVYYCAADRNRYTGEDDSWGQGTQVTVSS”: the “polyreactivity (PSR sort gate)” value was “low polyreactivity”.

Take “QVQLEESGGGLVQAGGSLRLSCAASGSTFPYYAMGWYRQAPGKERELVAVITSSGSRTYYADSVKGRFTISRDNAKNTVYLQMNSLKPEDTAVYYCARDTRYYRPNRSQYDYWGQGTQVTVSS”: the “polyreactivity (PSR sort gate)” value is “high polyreactivity”.

For “QVQLEESGGGLVQAGGSLRLSCAASGSTFSDNAKAWYRQATGKVRELVADITWSGGSTHYADSVKGRFTFSRDNAKNTVYLQMTSLKPEDTSVYYCARDNYKEGDYWGQGTKVTVSS”, the “polyreactivity (PSR sort gate)” value is on record as “low polyreactivity”.

On to “QVQLEESGGGLVQAGGSLRLSCAASGSTFSRYAMGWYRPAPGKEREFVAAISRRAGGTYYADSVKGRFTISRDNAKNTVYLQMNSLKPEDTAVYYCATVLPRDYIGRATYDYWGQGTQVTVSS”, for which the “polyreactivity (PSR sort gate)” value was “high polyreactivity”.

Regarding “QVQLEESGGGLVQAGGSLRLSCAASGSTFVPYAMGWYRQAPGKERELVASISWRGGSTSYADSVKGRFTISRDNAKNTVYLQMNSLKPEDTAVYYCAADLGLDYDDAQTRVVVTSEDYWGQGTQVTVSS”, the “polyreactivity (PSR sort gate)” value is “high polyreactivity”.

As for “QVQLEESGGGLVQAGGSLRLSCAASGSTFWPYSMGWYRKATGKERELVAAITLRGGTTYYADSVKGRFTISRDNAMNTVYFQMNSLKPEDTAVYYCNADDYHYFSYDYWGQGTQVTVSS”, the “polyreactivity (PSR sort gate)” value is listed as “low polyreactivity”.

Take “QVQLEESGGGLVQAGGSLRLSCAASGSTFWVYVMGWYRQAPGKERELVATIRWSTSSTYADSVKGRFTISRDNAKNTVYLQMNILKPEDTAVYYCNTYPRGNWGNFVEQDYDYWGQGTQVTVSS”: the “polyreactivity (PSR sort gate)” value was “low polyreactivity”.

For “QVQLEESGGGLVQAGGSLRLSCAASGSTSTYNAMGWYRQAPGKERELVAAITESGGSTYYADSVKGRFTISRDNAKNTVYLQMNSLKPEDTAVYYCNTGYGLVDFLYGYYYWGQGTQVTVSS”, the “polyreactivity (PSR sort gate)” value is reported as “low polyreactivity”.

For “QVQLEESGGGLVQAGGSLRLSCAASGYIFQSYAMGWYRQAPGTERELVAAISRGGSTYYADSVKGRFTISRDNAMNSVYLQMNSLKPEDTAVYYCNTLTVGGFRRYYYWGQGSQVTVSS”, the “polyreactivity (PSR sort gate)” value was “high polyreactivity”.

As to “QVQLEESGGGLVQAGGSLRLSCAASRSTLDGYAMGWYRQAPGKERELVDAITFSGGITYYADSVKVRFTISRDNAKNTVYLQMNILKPEDTAVYYCAADISTWTTWSGTEYDYLGQGTQVTVSS”, the “polyreactivity (PSR sort gate)” value was “low polyreactivity”.

Turning to “QVQLEESGGGLVQAGGSLRLSCAASVSNLYYYPMGWYRQATRKERELVASIRNGGSTYYADSVKGLFTISRDNAKNTVYLQMNSLKPEDTAVYYCNARVSRSFRARYNYWGQGSQVTVSS”, the “polyreactivity (PSR sort gate)” value was “high polyreactivity”.

For the sequence “QVQLEESGGGLVQAGGSLRLSCAGSGFISNGYALGWYRQAPGKEREFVASISSTGGRTYYADSVKGRFTISRDNAKNTVYLLMNSLKPEDTSVYYCAKDPQPRYWVDYWGQGTQVTVSS”, the “polyreactivity (PSR sort gate)” value was “low polyreactivity”.

As to “QVQLEESGGGLVQAGGSLRLSCAGSGNIFPSYALGWYRQAPGKERELVAAITYSAVSTYYADSVKGRFTISRDNAKNTVYLQMNSLKPEDTAVYYCAKETTEVPGVGSQEMDFWGQGTQVTVSS”, the “polyreactivity (PSR sort gate)” value is reported as “low polyreactivity”.

For “QVQLEESGGGLVQAGGSLRLSCASYGRIFPFYALGWYRQAPRKERELVARISRRGGSTYYADSVKGRFTISRDNAKNNVYLQMNSLKPEDTAVYYCASSQAVYDGWYAKFGYWGQGTQVTVSS”, the “polyreactivity (PSR sort gate)” value is given as “low polyreactivity”.

As for “QVQLEESGGGLVQAGGSLRLSCASYGSTFTYNAMGLYIQAPAKERELVAVIRPGGTTNYADSVKGRFTISRDNAKNSVYLQMNSLKPVDTAVYYCAADVRRYDGYDYWGQGTQVTVSS”, the “polyreactivity (PSR sort gate)” value is given as “low polyreactivity”.

As to “QVQLEESGGGLVQAGGSLRLSCPASGLTFDCYAMGWYRQAPGKERELVAAITSVGSTYYADSVKGRFTISRDNAKNTVYLQMTSLKPEDTAVYYCAVEGVIWCFWPYEYWGQGTQVTVSS”, the “polyreactivity (PSR sort gate)” value is listed as “high polyreactivity”.
